In article PMC8872793:

Biological target: Mtb UvrD1 WT (Mycobacterium tuberculosis H37Rv, UniProt P9WMQ1 1-771)
Test: tryptophan fluorescence dissociation kinetics

Mtb UvrD1 WT, sequence (P9WMQ1 whole entry): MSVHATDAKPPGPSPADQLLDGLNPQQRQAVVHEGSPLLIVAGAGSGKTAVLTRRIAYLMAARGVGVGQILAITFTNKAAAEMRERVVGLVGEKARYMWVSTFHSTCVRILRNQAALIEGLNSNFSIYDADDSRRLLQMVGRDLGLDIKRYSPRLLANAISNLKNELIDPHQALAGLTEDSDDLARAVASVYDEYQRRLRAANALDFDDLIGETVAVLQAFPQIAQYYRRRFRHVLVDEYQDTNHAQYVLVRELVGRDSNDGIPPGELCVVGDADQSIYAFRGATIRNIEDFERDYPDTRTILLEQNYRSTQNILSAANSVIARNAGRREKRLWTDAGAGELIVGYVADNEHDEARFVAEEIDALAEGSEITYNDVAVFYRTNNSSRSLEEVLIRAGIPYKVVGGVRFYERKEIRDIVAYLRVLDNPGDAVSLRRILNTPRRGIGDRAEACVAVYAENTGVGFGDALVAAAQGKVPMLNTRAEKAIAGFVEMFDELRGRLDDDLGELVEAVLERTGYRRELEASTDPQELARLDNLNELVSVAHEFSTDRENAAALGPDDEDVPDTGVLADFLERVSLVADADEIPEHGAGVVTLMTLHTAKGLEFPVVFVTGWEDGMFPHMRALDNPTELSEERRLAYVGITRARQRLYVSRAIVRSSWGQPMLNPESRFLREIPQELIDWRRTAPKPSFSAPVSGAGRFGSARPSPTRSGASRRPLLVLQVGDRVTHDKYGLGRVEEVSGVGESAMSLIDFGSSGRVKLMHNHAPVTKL

B1: (dT)100 (ssDNA)
DNA: TTTTTTTTTTTTTTTTTTTTTTTTTTTTTTTTTTTTTTTTTTTTTTTTTTTTTTTTTTTTTTTTTTTTTTTTTTTTTTTTTTTTTTTTTTTTTTTTTTTT
Q: Does B1 bind?
A: binds
